Test results: paper PMC3985676

Target: BswR (Bacterial SWarming Regulator), PA2780 (Pseudomonas aeruginosa)
Test: SEC; gel filtration profile during protein purification; HiLoad Superdex 75 26/60; 20 mM Tris pH 7.5, 200 mM NaCl, 5 mM beta-ME

## BswR (Bacterial SWarming Regulator), PA2780 (natural protein)
  stoichiometry N: 2
